# Test results as given in US20070244048A1 (published 2007).
# Several values for one entry are separate records, joined by “and”; a condition that tells them apart may be missing. Equal entries are not always repeated. Starred links: 1 amine or outer side, 2 acyl side, 3 side chain; linkers in the order of their positions; H or OH if unused. Non-standard residues stand in square brackets, D forms with d. *: point of attachment. Ttds = 1-amino-4,7,10-trioxa-13-tridecanamine succinimic acid spacer, O=C(CCC(=O)[*:2])NCCCOCCOCCOCCCN[*:1]; (PEG)2 40 kDa = branched PEG of 40 kDa linked via the Cys side-chain thiol (code C2 = Cys(PEG)2 40 kDa); Succinimide(1-Et,3-yl) = CCN1C(=O)CC(*)C1=O; Palmitoyl = CCCCCCCCCCCCCCCC(=O)*
# T1: mouse NMUR1-ATG (mouse, UniProt O55040 1-428)
# T1 sequence (looked up): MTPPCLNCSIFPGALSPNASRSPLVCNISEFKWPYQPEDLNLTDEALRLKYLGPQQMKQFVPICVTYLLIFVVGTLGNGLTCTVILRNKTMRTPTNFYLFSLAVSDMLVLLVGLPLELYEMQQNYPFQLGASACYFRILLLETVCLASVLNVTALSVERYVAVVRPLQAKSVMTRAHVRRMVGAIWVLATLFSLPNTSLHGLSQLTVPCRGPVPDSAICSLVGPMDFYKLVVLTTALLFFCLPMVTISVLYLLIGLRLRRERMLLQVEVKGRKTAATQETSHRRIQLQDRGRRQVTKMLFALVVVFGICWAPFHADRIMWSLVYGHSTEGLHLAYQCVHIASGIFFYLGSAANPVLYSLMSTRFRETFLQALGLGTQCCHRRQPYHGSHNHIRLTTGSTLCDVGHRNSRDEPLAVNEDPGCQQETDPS
# T2: mouse NMUR1-CTG (mouse, UniProt O55040 1-428)
# T2 sequence (looked up): T1 sequence (looked up)
# T3: human NMUR1 (human, UniProt Q9HB89 1-426)
# T3 sequence (looked up): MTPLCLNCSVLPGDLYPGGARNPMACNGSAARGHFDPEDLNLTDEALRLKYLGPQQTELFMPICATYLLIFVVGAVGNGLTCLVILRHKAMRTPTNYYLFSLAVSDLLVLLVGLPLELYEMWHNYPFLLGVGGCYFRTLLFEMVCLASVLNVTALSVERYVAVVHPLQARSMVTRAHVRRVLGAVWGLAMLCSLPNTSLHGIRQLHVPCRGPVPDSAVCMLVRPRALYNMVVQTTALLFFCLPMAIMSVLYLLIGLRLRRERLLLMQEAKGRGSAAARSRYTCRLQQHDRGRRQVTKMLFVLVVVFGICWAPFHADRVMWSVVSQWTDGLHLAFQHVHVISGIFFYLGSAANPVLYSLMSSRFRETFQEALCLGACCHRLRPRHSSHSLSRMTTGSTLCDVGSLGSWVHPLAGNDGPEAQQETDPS
# T4: rat NMUR1-ATG (rat, UniProt Q9JJI5 1-425)
# T4 sequence (looked up): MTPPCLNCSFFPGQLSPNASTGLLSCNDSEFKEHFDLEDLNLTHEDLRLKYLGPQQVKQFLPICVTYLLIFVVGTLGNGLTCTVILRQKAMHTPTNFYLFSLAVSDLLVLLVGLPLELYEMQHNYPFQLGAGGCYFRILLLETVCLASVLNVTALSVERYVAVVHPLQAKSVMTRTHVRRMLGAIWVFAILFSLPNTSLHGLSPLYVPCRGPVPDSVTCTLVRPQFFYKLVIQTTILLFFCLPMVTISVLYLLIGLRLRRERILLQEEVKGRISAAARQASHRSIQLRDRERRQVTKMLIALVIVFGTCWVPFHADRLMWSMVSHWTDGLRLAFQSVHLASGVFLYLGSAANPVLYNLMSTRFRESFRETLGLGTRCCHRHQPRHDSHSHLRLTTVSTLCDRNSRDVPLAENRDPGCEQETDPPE
# T5: rat NMUR1-TTG (rat, UniProt Q9JJI5 1-425)
# T5 sequence (looked up): T4 sequence (looked up)
# B1: NMU17 (peptide)
# peptide: Ac-C(Succinimide(1-Et,3-yl))ASQSRGYFLFRPRN-NH2
# SMILES: CCN1C(=O)CC(SC[C@H](NC(C)=O)C(=O)N[C@@H](C)C(=O)N[C@@H](CO)C(=O)N[C@@H](CCC(N)=O)C(=O)N[C@@H](CO)C(=O)N[C@@H](CCCNC(=N)N)C(=O)NCC(=O)N[C@@H](Cc2ccc(O)cc2)C(=O)N[C@@H](Cc2ccccc2)C(=O)N[C@@H](CC(C)C)C(=O)N[C@@H](Cc2ccccc2)C(=O)N[C@@H](CCCNC(=N)N)C(=O)N2CCC[C@H]2C(=O)N[C@@H](CCCNC(=N)N)C(=O)N[C@@H](CC(N)=O)C(N)=O)C1=O
# B2: NMU15 (peptide)
# peptide: Ac-C(Succinimide(1-Et,3-yl))[Ttds]FLFRPRN-NH2
# SMILES: CCN1C(=O)CC(SC[C@H](NC(C)=O)C(=O)NCCCOCCOCCOCCCNC(=O)CCC(=O)N[C@@H](Cc2ccccc2)C(=O)N[C@@H](CC(C)C)C(=O)N[C@@H](Cc2ccccc2)C(=O)N[C@@H](CCCNC(=N)N)C(=O)N2CCC[C@H]2C(=O)N[C@@H](CCCNC(=N)N)C(=O)N[C@@H](CC(N)=O)C(N)=O)C1=O
# Biological target: T1, mouse NMUR1-ATG
# Assay: cell-based or functional assay
Binder,% Activity (FLIPR),EC50 (FLIPR)
Ac-C((PEG)2 40 kDa)ASQSRGYFLFRPRN-NH2 [NMU18],100%,15.2 nM
B1,100%,1.2 nM
Ac-C((PEG)2 40 kDa)FRVDEEFQSPFASQSRGYF[dA]WRPRN-NH2 [NMU14],60.8%,584 nM
B2,100%,1.5 nM
Ac-C((PEG)2 40 kDa)[Ttds]FLFRPRN-NH2 [NMU16],100%,24.1 nM
Ac-C((PEG)2 40 kDa)FRVDEEFQSPFASQSRGYFLFRPRN-NH2 [NMU12],98.4%,72 nM
Palmitoyl-C((PEG)2 40 kDa)FRVDEEFQSPFASQSRGYFLFRPRN-NH2 [NMU25],100%,10.2 nM

# Biological target: T2, mouse NMUR1-CTG
# Assay: cell-based or functional assay
Binder,% Activity (FLIPR),EC50 (FLIPR)
Ac-C((PEG)2 40 kDa)ASQSRGYFLFRPRN-NH2 [NMU18],57.7%,693 nM
B1,117%,2.9 nM
Ac-C((PEG)2 40 kDa)FRVDEEFQSPFASQSRGYF[dA]WRPRN-NH2 [NMU14],24.8%,> 1000 nM
B2,100%,4 nM
Ac-C((PEG)2 40 kDa)[Ttds]FLFRPRN-NH2 [NMU16],57.2%,651 nM
Ac-C((PEG)2 40 kDa)FRVDEEFQSPFASQSRGYFLFRPRN-NH2 [NMU12],68.5%,407 nM
Palmitoyl-C((PEG)2 40 kDa)FRVDEEFQSPFASQSRGYFLFRPRN-NH2 [NMU25],100%,60.3 nM

# Biological target: mouse NMUR2 (mouse, UniProt Q8BZ39 1-395)
# Sequence (Q8BZ39 whole entry): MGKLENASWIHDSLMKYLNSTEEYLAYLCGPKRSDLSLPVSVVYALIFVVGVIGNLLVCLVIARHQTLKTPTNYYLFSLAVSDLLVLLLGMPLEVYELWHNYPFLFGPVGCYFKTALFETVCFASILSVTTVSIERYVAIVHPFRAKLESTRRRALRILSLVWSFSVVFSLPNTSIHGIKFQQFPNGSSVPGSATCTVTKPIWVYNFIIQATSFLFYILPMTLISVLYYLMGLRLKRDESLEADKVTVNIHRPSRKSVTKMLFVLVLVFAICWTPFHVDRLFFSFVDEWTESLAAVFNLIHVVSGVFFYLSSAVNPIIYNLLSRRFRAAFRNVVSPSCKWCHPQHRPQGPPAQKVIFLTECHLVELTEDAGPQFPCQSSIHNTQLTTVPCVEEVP
# Assay: cell-based or functional assay
Binder,% Activity (FLIPR),EC50 (FLIPR)
Ac-C((PEG)2 40 kDa)ASQSRGYFLFRPRN-NH2 [NMU18],100%,50.2 nM
B1,100%,0.5 nM
Ac-C((PEG)2 40 kDa)FRVDEEFQSPFASQSRGYF[dA]WRPRN-NH2 [NMU14],0%,> 1000 nM
B2,100%,0.6 nM
Ac-C((PEG)2 40 kDa)[Ttds]FLFRPRN-NH2 [NMU16],97.4%,138 nM
Ac-C((PEG)2 40 kDa)FRVDEEFQSPFASQSRGYFLFRPRN-NH2 [NMU12],94.1%,19.1 nM
Palmitoyl-C((PEG)2 40 kDa)FRVDEEFQSPFASQSRGYFLFRPRN-NH2 [NMU25],100%,18.8 nM

# Biological target: human NMUR2 (human, UniProt Q9GZQ4 1-415)
# Sequence (Q9GZQ4 whole entry): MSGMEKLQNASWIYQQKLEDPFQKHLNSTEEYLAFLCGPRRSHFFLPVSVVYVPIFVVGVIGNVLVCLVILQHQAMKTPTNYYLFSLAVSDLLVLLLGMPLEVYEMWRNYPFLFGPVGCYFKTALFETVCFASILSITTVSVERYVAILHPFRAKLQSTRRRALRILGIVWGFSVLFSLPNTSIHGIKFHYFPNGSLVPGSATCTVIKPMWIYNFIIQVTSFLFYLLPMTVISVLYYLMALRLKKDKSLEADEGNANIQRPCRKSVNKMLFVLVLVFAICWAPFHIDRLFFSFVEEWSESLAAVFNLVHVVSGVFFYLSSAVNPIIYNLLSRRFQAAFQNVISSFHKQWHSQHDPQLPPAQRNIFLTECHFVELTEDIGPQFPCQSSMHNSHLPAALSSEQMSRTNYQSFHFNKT
# Assay: cell-based or functional assay
Binder,% Activity (FLIPR),EC50 (FLIPR)
Ac-C((PEG)2 40 kDa)ASQSRGYFLFRPRN-NH2 [NMU18],101%,65.7 nM
B1,99.8%,1.5 nM
Ac-C((PEG)2 40 kDa)FRVDEEFQSPFASQSRGYF[dA]WRPRN-NH2 [NMU14],0%,> 1000 nM
B2,101%,4.2 nM
Ac-C((PEG)2 40 kDa)[Ttds]FLFRPRN-NH2 [NMU16],75%,1000 nM
Ac-C((PEG)2 40 kDa)FRVDEEFQSPFASQSRGYFLFRPRN-NH2 [NMU12],89%,119 nM
Palmitoyl-C((PEG)2 40 kDa)FRVDEEFQSPFASQSRGYFLFRPRN-NH2 [NMU25],98.8%,44.1 nM

# Biological target: T3, human NMUR1
# Assay: cell-based or functional assay
Binder,% Activity (FLIPR),EC50 (FLIPR)
Ac-C((PEG)2 40 kDa)ASQSRGYFLFRPRN-NH2 [NMU18],97.1%,68.1 nM
B1,100%,5 nM
Ac-C((PEG)2 40 kDa)FRVDEEFQSPFASQSRGYF[dA]WRPRN-NH2 [NMU14],95.7%,104 nM
B2,91.5%,7.7 nM
Ac-C((PEG)2 40 kDa)[Ttds]FLFRPRN-NH2 [NMU16],74%,1000 nM
Ac-C((PEG)2 40 kDa)FRVDEEFQSPFASQSRGYFLFRPRN-NH2 [NMU12],92.9%,58.6 nM
Palmitoyl-C((PEG)2 40 kDa)FRVDEEFQSPFASQSRGYFLFRPRN-NH2 [NMU25],83%,168 nM

# Biological target: rat NMUR2 (rat, UniProt Q9ESQ4 1-395)
# Sequence (Q9ESQ4 whole entry): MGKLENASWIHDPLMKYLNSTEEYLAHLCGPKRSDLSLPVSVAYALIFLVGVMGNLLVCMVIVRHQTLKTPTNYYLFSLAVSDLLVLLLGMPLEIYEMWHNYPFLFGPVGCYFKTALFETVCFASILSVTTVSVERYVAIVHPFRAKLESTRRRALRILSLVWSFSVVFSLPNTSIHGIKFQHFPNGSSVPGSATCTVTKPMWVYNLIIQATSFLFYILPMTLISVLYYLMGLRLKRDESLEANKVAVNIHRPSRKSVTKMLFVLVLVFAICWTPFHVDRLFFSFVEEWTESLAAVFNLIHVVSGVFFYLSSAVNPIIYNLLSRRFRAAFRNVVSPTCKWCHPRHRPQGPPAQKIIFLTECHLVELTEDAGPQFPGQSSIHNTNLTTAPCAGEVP
# Assay: cell-based or functional assay
Binder,% Activity (FLIPR),EC50 (FLIPR)
Ac-C((PEG)2 40 kDa)ASQSRGYFLFRPRN-NH2 [NMU18],96.7%,63 nM
B1,100%,1.2 nM
B2,100%,2.2 nM
Ac-C((PEG)2 40 kDa)[Ttds]FLFRPRN-NH2 [NMU16],86.9%,315 nM
Ac-C((PEG)2 40 kDa)FRVDEEFQSPFASQSRGYFLFRPRN-NH2 [NMU12],43.4%,1000 nM
Palmitoyl-C((PEG)2 40 kDa)FRVDEEFQSPFASQSRGYFLFRPRN-NH2 [NMU25],96.4%,37.8 nM

# Biological target: T4, rat NMUR1-ATG
# Assay: cell-based or functional assay
Binder,% Activity (FLIPR),EC50 (FLIPR)
Ac-C((PEG)2 40 kDa)ASQSRGYFLFRPRN-NH2 [NMU18],95.9%,28.6 nM
B1,100%,0.9 nM
Ac-C((PEG)2 40 kDa)FRVDEEFQSPFASQSRGYF[dA]WRPRN-NH2 [NMU14],–,240 nM and 133 nM
B2,100%,4.2 nM
Ac-C((PEG)2 40 kDa)[Ttds]FLFRPRN-NH2 [NMU16],75.4%,418 nM
Ac-C((PEG)2 40 kDa)FRVDEEFQSPFASQSRGYFLFRPRN-NH2 [NMU12],52.7%,1000 nM
Palmitoyl-C((PEG)2 40 kDa)FRVDEEFQSPFASQSRGYFLFRPRN-NH2 [NMU25],99.6%,20.1 nM

# Biological target: T5, rat NMUR1-TTG
# Assay: cell-based or functional assay
Binder,% Activity (FLIPR),EC50 (FLIPR)
Ac-C((PEG)2 40 kDa)ASQSRGYFLFRPRN-NH2 [NMU18],90.7%,105 nM
B1,105%,4.9 nM
Ac-C((PEG)2 40 kDa)FRVDEEFQSPFASQSRGYF[dA]WRPRN-NH2 [NMU14],36.7%,> 1000 nM
B2,108%,24.6 nM
Ac-C((PEG)2 40 kDa)[Ttds]FLFRPRN-NH2 [NMU16],34.6%,1000 nM
Palmitoyl-C((PEG)2 40 kDa)FRVDEEFQSPFASQSRGYFLFRPRN-NH2 [NMU25],93.5%,81 nM
